Experimental data published in the Human Domainome abundance scans (Beltran et al. 2025).
± gives the uncertainty stated by the source.

B1: Membrane-associated guanylate kinase, WW and PDZ domain-containing protein 2, residues 601 to 682; numbered along this chain, Q86UL8 (parent)
chain: AELMTLTIVKGAQGFGFTIADSPTGQRVKQILDIQGCPGLCEGDLIVEINQQNVQNLSHTEVVDILKDCPIGSETSLIIHRG

Variants of: B1
Experiment: abundance fitness (aPCA) (normalised: wild type 0, dead -1); higher = more abundant; growth selection in yeast, the domain comes from the species named
Details: Homo sapiens

Variant	abundance fitness
E42I	-0.087 ± 0.089
E42T	-0.015 ± 0.061
E42P	0.061 ± 0.075
E42W	-0.171 ± 0.064
E42R	-0.1 ± 0.052
T24M	-0.031 ± 0.057
T24P	-0.017 ± 0.041
T24Q	-0.035 ± 0.044
T24H	0.02 ± 0.071
T24R	0.007 ± 0.038
T24W	-0.076 ± 0.06
T24A	-0.013 ± 0.037
T24V	-0.08 ± 0.04
T24D	-0.037 ± 0.05
T24C	-0.03 ± 0.066
T24F	-0.053 ± 0.087
T24E	0.024 ± 0.046
T24Y	-0.021 ± 0.075
T24N	-0.004 ± 0.099
T24G	0.041 ± 0.035
T24L	-0.023 ± 0.041
L40F	0.047 ± 0.25
L40A	-0.108 ± 0.17
L40M	-0.254 ± 0.17

Variant	abundance fitness
L40T	-0.498 ± 0.097
L40V	-0.061 ± 0.081
L40S	-0.616 ± 0.21
L40P	-0.232 ± 0.09
L40G	-0.752 ± 0.13
C41N	-0.012 ± 0.081
C41R	-0.022 ± 0.029
C41D	0.036 ± 0.066
C41S	0.027 ± 0.038
C41T	0.046 ± 0.048
C41P	-1.02 ± 0.16
C41I	0.057 ± 0.062
C41H	0.144 ± 0.084
C41M	-0.04 ± 0.05
C41L	-0.005 ± 0.037
C41E	0.01 ± 0.044
C41A	0.042 ± 0.04
C41K	-0.036 ± 0.056
C41G	-0.046 ± 0.03
C41W	-0.058 ± 0.039
C41Q	-0.001 ± 0.061
C41F	0.016 ± 0.088
D21G	-0.082 ± 0.081
D21W	-0.111 ± 0.065

Variant	abundance fitness
D21P	-0.048 ± 0.14
D21L	0.084 ± 0.11
D21S	-0.054 ± 0.083
D21A	-0.126 ± 0.087
D21M	0.079 ± 0.24
D21H	-0.068 ± 0.45
D21N	-0.105 ± 0.45
D21V	-0.064 ± 0.078
D21C	-0.14 ± 0.1
D21K	-0.039 ± 0.2
D21Y	-0.099 ± 0.15
D21E	-0.023 ± 0.12
D21F	-0.208 ± 0.33
P23N	-0.045 ± 0.11
P23V	-0.297 ± 0.04
P23Q	-0.029 ± 0.056
P23I	-0.17 ± 0.097
P23M	-0.072 ± 0.068
P23R	-0.03 ± 0.038
P23W	-0.03 ± 0.053
P23F	-0.106 ± 0.091
P23H	-0.303 ± 0.16
P23T	-0.058 ± 0.053
P23D	-0.129 ± 0.1

Variant	abundance fitness
P23Y	-0.16 ± 0.13
P23L	-0.018 ± 0.042
P23G	-0.09 ± 0.039
P23K	0.023 ± 0.049
P23E	-0.022 ± 0.043
P23C	0.021 ± 0.084
A20R	-0.172 ± 0.081
A20V	-0.11 ± 0.085
A20S	0.003 ± 0.1
A20Q	0.217 ± 0.28
D33H	-0.088 ± 0.071
D33V	-0.152 ± 0.052
D33K	-0.192 ± 0.084
D33I	-0.243 ± 0.11
D33P	-0.147 ± 0.051
D33Y	0.049 ± 0.1
D33R	-0.061 ± 0.041
D33T	-0.02 ± 0.059
D33E	-0.089 ± 0.054
D33M	-0.124 ± 0.06
D33G	-0.11 ± 0.04
D33C	-0.092 ± 0.08
D33N	-0.043 ± 0.082
D33Q	0.024 ± 0.076

Variant	abundance fitness
D33W	-0.117 ± 0.066
I31A	-0.101 ± 0.31
I31G	-0.11 ± 0.084
I31C	-0.185 ± 0.093
I31M	-0.084 ± 0.12
I31R	-0.283 ± 0.081
I31W	-0.665 ± 0.15
I31Q	-0.091 ± 0.22
I31V	-0.035 ± 0.084
I31Y	-0.221 ± 0.14
I31K	0.197 ± 0.41
I31L	0.011 ± 0.083
I31H	-0.316 ± 0.31
I31S	-0.251 ± 0.079
I31P	-0.181 ± 0.28
I31T	-0.097 ± 0.089
I31N	-0.219 ± 0.21
Q26C	-0.039 ± 0.13
Q26V	-0.025 ± 0.042
Q26L	-0.028 ± 0.041
Q26P	0.045 ± 0.088
Q26N	-0.139 ± 0.12
Q26T	-0.007 ± 0.055
Q26Y	0.316 ± 0.4

Variant	abundance fitness
Q26D	-0.176 ± 0.13
Q26K	0.038 ± 0.06
Q26F	-0.194 ± 0.23
Q26S	-0.071 ± 0.05
Q26H	-0.124 ± 0.14
Q26W	-0.105 ± 0.051
Q26G	-0.032 ± 0.04
Q26A	0.063 ± 0.047
Q26R	-0.032 ± 0.039
Q26E	0.016 ± 0.055
Q26I	-0.111 ± 0.12
G36V	-0.009 ± 0.1
G36E	0.037 ± 0.17
G36F	-0.245 ± 0.22
G36P	-0.057 ± 0.15
G36C	-0.044 ± 0.09
G36R	-0.069 ± 0.08
G36Q	-0.054 ± 0.2
G36S	-0.158 ± 0.081
G36L	-0.261 ± 0.22
G36N	0.055 ± 0.21
G36T	0.064 ± 0.21
G36A	-0.241 ± 0.24
G36H	-0.126 ± 0.32

Variant	abundance fitness
G36M	0.04 ± 0.13
V28A	-0.305 ± 0.22
V28E	-1.03 ± 0.27
V28Q	-0.718 ± 0.38
V28T	-0.538 ± 0.34
V28S	-0.849 ± 0.2
V28C	-0.077 ± 0.14
V28G	-0.655 ± 0.1
V28P	-1.09 ± 0.37
V28N	-0.564 ± 0.29
V28I	0.144 ± 0.23
V28L	-0.215 ± 0.095
Q35K	-0.278 ± 0.24
Q35L	-0.115 ± 0.094
Q35S	-0.005 ± 0.13
Q35T	0.209 ± 0.35
Q35P	-0.243 ± 0.16
Q35Y	-0.066 ± 0.24
Q35H	0.08 ± 0.29
Q35A	0.086 ± 0.15
Q35V	-0.064 ± 0.17
Q35R	0.021 ± 0.12
Q35G	0.052 ± 0.11
